This is an account of results in US11723968B2.

The target of experiment [1] is Andes virus glycoprotein Gc, wild type (Andes virus (Andes orthohantavirus CHI-7913 isolate)).
For experiment [2] the target is unchanged. This is another data set of the same source.

For Andes virus glycoprotein Gn, wild type, the melting temperature (Tm) of the temperature-induced Gn/Gc dissociation in experiment [1] is 37.7 ° C. This substance showed a melting temperature (Tm) of (Gn/Gc)4 dissociation in experiment [2] of 36.3 ° C.
